Data as given in publication PMC4504198 (Chemical biology & drug design, 2010).

Assay: in vitro
Format: in vitro ADME
Conditions: human, plasma

SMILES | half-life
[N-]=[N+]=NC(CCCCNC(=O)[C@H](CCC(=O)O)NC(=O)C1=C[C@H](O)[C@@H](NC(=O)[C@H](CCC(=O)O)NC(=O)C2=C[C@H](O)[C@@H](NC(=O)[C@H](CCC(=O)O)NC(=O)C3=C[C@H](O)[C@@H](NC(=O)CN4CCN(CC(=O)O)CCN(CC(=O)O)CCN(CC(=O)O)CC4)[C@H]([C@H](O)[C@H](O)CO)O3)[C@H]([C@H](O)[C@H](O)CO)O2)[C@H]([C@H](O)[C@H](O)CO)O1)C(N)=O (some centres unmarked) [compound 10] | 16.2 days
[N-]=[N+]=NC(CCCCNC(=O)C1=C[C@H](O)[C@@H](NC(=O)[C@@H](CCC(=O)O)NC(=O)C2=C[C@H](O)[C@@H](NC(=O)[C@@H](CCC(=O)O)NC(=O)C3=C[C@H](O)[C@@H](NC(=O)[C@@H](CCC(=O)O)NC(=O)CN4CCN(CC(=O)O)CCN(CC(=O)O)CCN(CC(=O)O)CC4)[C@H]([C@H](O)[C@H](O)CO)O3)[C@H]([C@H](O)[C@H](O)CO)O2)[C@H]([C@H](O)[C@H](O)CO)O1)C(N)=O (some centres unmarked) [compound 7] | 4.08 days
